Patent US20110256142A1 (Genmab, published 2011)
Where a chain is given by its changes, count along the chain named. Blank lines part the entries; values can stand above or below the binder they belong to.

Key:
[1] = target: T1, EGFR-vIII deletion mutant expressed on transfected Ba/F3 and A431 cells (UniProt P00533 25-1210); experiment: flow cytometry on Ba/F3 cells transfected with EGFR-vIII, FITC anti-human IgG F(ab')2 detection
T1 construct: whole, on cells; Deletion variant, not expressible as substitutions; also called de2-7 EGFR

[2] = target: T2, purified EGFR (Sigma-Aldrich, cat no. E3641) (UniProt P00533 25-1210, limits assumed); experiment: ELISA, plate coated with purified EGFR, anti-human IgG Fc-HRP detection
T2 construct: Bought preparation coated on ELISA plates

EC50 [2]: 0.117 µg/mL
B1: Fully human IgG1,κ antibody 003 (P- or LC1006-003) (antibody, V domains shown)
VH: EVQLVESGGGLVQPGGSLRLSCAASGFTFSSYWMTWVRQAPGKGLEWVANIQQDGSEKNYLDSVKGRFTISRDNAKNSLSLQMNSLRAEDTAVYYCARTYSGFEDFWGQGTLVTVSS
VL: EIVLTQSPATLSLSPGERATLSCRASQSVSSYLAWYQQKPGQAPRLLIFDASNRATGIPARFSGSGSGTDFTLTISSLEPEDFAVYYCQQRSNWPPWTFGQGTKVEIK
notes: Human IgG1,κ; P1006-003 is the hybridoma before cloning, LC1006-003 the clone by limiting dilution; also called P1006-003
binding result [1]: no binding (tested: saturating concentrations)

EC50 [2]: 2.46 µg/mL
B2: Fully human IgG1,κ antibody 008 (P- or LC1006-008) (antibody, V domains shown)
VH: B1 VH with T35S, Q52K, K58E, L61V, I70V, S80Y, F106Y
VL: B1 VL
notes: Human IgG1,κ; P1006-008 uncloned, LC1006-008 cloned hybridoma; also called P1006-008
binding result [1]: no binding (tested: saturating concentrations)

EC50 [2]: 0.081 µg/mL
B3: Fully human IgG1,κ antibody 018 (P- or LC1006-018) (antibody, V domains shown)
VH: EVQLVESGGGLVQPGGSLRLSCAASGFTFSSYWMNWVRQAPGKGLEWVANIKKDGSEKYYVDSVKGRFTISRDNAKNSLYLQMNSLRAEDTAVYYCARDLGWGWGWYFDLWGRGTLVTVSS
VL: not shown
notes: Human IgG1,κ; P1006-018 uncloned, LC1006-018 cloned hybridoma; also called P1006-018
